The target in assay [1] is T1, monoclonal antibody SM3 (secreted by the hybridoma HSM3, ECACC accession no. 87010701).
T1 construct: The general ELISA method detects it with goat anti-mouse (Fc specific) conjugate; also called SM3 antibody
The assay is described as follows: inhibition ELISA of SM3 (1 ug/ml) binding to the fusion protein with seven MUC1 tandem repeats. (In general: In an ELISA, binding on a coated surface is turned into a signal by an enzyme label.)

Assay [2] has as its target T1, monoclonal antibody SM3 (secreted by …). The assay is described as follows: inhibition ELISA: SM3 at 1 ug/ml incubated with increasing peptide, binding to the fusion protein with seven MUC1 tandem repeats.

T1 sequence (VH, as listed by the source limits assumed, chain 1 of 2): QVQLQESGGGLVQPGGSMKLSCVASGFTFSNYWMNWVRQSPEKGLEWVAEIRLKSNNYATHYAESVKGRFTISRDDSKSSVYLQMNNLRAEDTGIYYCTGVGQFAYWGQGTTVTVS
T1 sequence (VL, as listed by the source limits assumed, chain 2 of 2): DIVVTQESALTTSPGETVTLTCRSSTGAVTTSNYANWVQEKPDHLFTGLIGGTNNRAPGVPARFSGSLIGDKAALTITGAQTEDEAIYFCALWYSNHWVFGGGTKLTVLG

B1: control peptide of the same composition but different sequence (Ala-Arg-Pro-Thr-Gly-Thr-Ser-Asp-Pro-Thr-Pro-Ala-Ser) (peptide)
peptide: ARPTGTSDPTPAS
For B1, in assay [1], the binding result is “no binding (tested: approximately 30μg/ml)”.

B2: MUC1 peptide Thr-Ser-Ala-Pro-Asp-Thr-Arg-Pro-Ala-Pro-Gly-Ser-Thr ("the crystal peptide") (peptide)
peptide: TSAPDTRPAPGST
notes: Non-glycosylated peptide; also called MUCl peptide; MUCl peptide antigen
For orientation: IC50 means the midpoint of a concentration-inhibition curve. For B2, in assay [2], the “Apparent Ka” value was roughly 24 µM and the IC50 is roughly 30 µg/mL.
